Data published in article PMC7299280.

Molecular target: SARS-CoV1-SΔ28 (SARS-CoV-1 spike protein truncated at the C terminus, on pseudovirions) (SARS-CoV-1)

CC6.33 (antibody)
neutralization IC50 of SARS-CoV-1 pseudovirus: 0.162 µg/mL
